The values that follow come from US20180325981A1 (published 2018).

Square brackets hold non-standard residues; d marks the D form. Nva = CCC[C@H](N)C(=O)O Where only a bound is given, the exact number is not on record here.

Assay [1] concerns the target purified recombinant ADIPOR1 (A88) (UniProt Q96A54). Description: SPR, immobilised ADIPOR1.
Assay [2] has as its target T1, purified recombinant ADIPOR1 (A88) (UniProt Q96A54 89-375).
T1 construct: range 89-375; Expressed in SF9 cells by baculovirus, solubilised in DDM, purified on anti-Flag beads (eluted with Flag peptide) and by size exclusion as monomer; amine-coupled to a CM5 chip; also called adiponectin receptor 1; adiponectin receptor ADIPOR1; not shown: Flag tag at the N-terminus
T1 sequence: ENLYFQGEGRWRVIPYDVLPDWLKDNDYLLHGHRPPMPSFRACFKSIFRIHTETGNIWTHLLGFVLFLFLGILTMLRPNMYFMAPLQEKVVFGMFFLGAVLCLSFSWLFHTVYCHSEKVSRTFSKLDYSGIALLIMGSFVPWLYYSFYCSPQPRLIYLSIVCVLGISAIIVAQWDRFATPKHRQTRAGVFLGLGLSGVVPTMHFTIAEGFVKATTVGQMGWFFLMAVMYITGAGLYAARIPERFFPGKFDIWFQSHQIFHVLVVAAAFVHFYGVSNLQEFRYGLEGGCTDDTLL
Description: SPR, ADIPOR1 amine-coupled to CM5 chip, peptide injected. How it is done: (§1) In order to analyze the binding force between peptide and ADIPOR1, a purified recombinant ADIPOR1 (A88) was bound to a CM5 chip with 3000 RU or higher through amine coupling. Peptide was diluted with a running buffer (0.1% DDM, 0.005% CHS, 10 mM HEPES, 150 mM NaCl with pH 7.4) and injected into a SPR instrument at various concentrations to analyze the binding force. The affinity value was calculated using the affinity fitting or kinetics fitting method. In order to analyze peptide solubility, peptide stocks were prepared with DMSO, diluted in an appropriate buffer, and then undissolved precipitates were removed. The peptide concentrations were calculated by measuring the […] and A280 absorbance of each peptide.
With reference to FIGS. 3 and 4, surface plasmon resonance (SPR) experiments were performed in the present invention to measure the dissociation constant between the agonist peptide and the adiponectin receptor, particularly adiponectin receptor 1 (ADIPOR1). First, an expressed and purified adiponectin receptor ADIPOR1 was immobilized and its dissociation constant from candidate peptides was measured over a total of 4 rounds.

For assay [3], the target named is T1, purified recombinant ADIPOR1 (A88). Description: SPR; recombinant ADIPOR1 amine-coupled to a CM5 chip, peptide injected. How it is done: as §1

B1: reference peptide ADP355 (peptide)
peptide: H-[dN]IP[Nva]LY[dS]FA[dS]-NH2
SMILES: CCC[C@H](NC(=O)[C@@H]1CCCN1C(=O)[C@@H](NC(=O)[C@H](N)CC(N)=O)[C@@H](C)CC)C(=O)N[C@@H](CC(C)C)C(=O)N[C@@H](Cc1ccc(O)cc1)C(=O)N[C@H](CO)C(=O)N[C@@H](Cc1ccccc1)C(=O)N[C@@H](C)C(=O)N[C@H](CO)C(N)=O
B1: in assay [1], the Kd is above 100 µM.

B2: peptide 3-1 (peptide)
peptide: YYFAYHPNIPGLYYF
notes: Synthetic 3rd round agonist peptide designed for the adiponectin receptor
As for B2, the Kd in assay [2] was at most 16 µM.

B3: 3-3 (peptide)
peptide: NIPGLWYFAY
notes: 3rd round synthetic peptide; also called peptide 3-3
Turning to B3, the Kd in assay [3] was 30.7 µM.

B4: 3-4 (peptide)
peptide: NIPGLFYFAY
notes: 3rd round synthetic peptide; also called peptide 3-4
As to B4, the Kd in assay [3] was determined as 23.2 µM.

Regarding FYFAYHPNIPGLFYF (Synthetic 4th round agonist peptide) [peptide 4-4], the Kd in assay [2] lay in the range of 2 to 4.3 µM.

WYFAYHPNIPGLWYF (Synthetic 4th round agonist peptide) [peptide 4-3]: the Kd in assay [2] was in the range of 6 to 10 µM.
